Assay results as given in patent publication US6429304B1, “Nucleic acids encoding a katanin p60 subunit” (The Regents of the University of California, priority 1998, dated 2002).

B1: p60: S. purpuratus katanin p60 subunit, 516 a.a. AAA ATPase (SEQ ID NO:1), baculovirus-expressed with N-terminal His(6) tag (protein, listed as Strongylocentrotus purpuratus)
chain: MSVDEICENTKMGREYALLGNYETSLVYYQGVLQQIQKLLTSVHEPQRKHQWQTIRQELSQEYEHVKNITKTLNGFKSEPAAPEPAPNHRAAPFSHHQHAAKPAAAEPARDPDVWPPPTPVDHRPSPPYQRAARKDPPRRSEPSKPANRAPGNDRGGRGPSDRRGDARSGGGGRGGARGSDKDKNRGGKSDKDKKAPSGEEGDEKKFDPAGYDKDLVENLERDIVQRNPNVHWADIAGLTEAKRLLEEAVVLPLWMPDYFKGIRRPWKGVLMVGPPGTGKTMLAKAVATECGTTFFNVSSASLTSKYHGESEKLVRLLFEMARFYAPSTIFIDEIDSICSKRGTGSEHEASRRVKSELLIQMDGVSGPSAGEESSKMVMVLAATNFPWDIDEALRRRLEKRIYIPLPEIDGREQLLRINLKEVPLADDIDLKSIAEKMDGYSGADITNVCRDASMMAMRRRIQGLRPEEIRHIPKEELNQPSTPADFLLALQKVSKSVGKEDLVKYMAWMEEFGSV
modifications: N-terminal His6 tag; katanin p60 subunit
B2: p80: S. purpuratus katanin p80 subunit, 690 a.a. with six WD40 repeats (SEQ ID NO:2), baculovirus-expressed, His-tagged (protein, listed as Strongylocentrotus purpuratus)
chain: MATKRAWKLQELVAHSSNVNCLALGPMSGRVMVTGGEDKKVNLWAVGKQNCIISLSGHTSPVDSVKFNSSEELVVAGSQSGTMKIYDLEPAKIVRTLTGHRNSIRCMDFHPFGEFVASGSTDTNVKLWDVRRKGCIYTYKGHSDQVNMIKFSPDGKWLVTASEDTTIKLWDLTMGKLFQEFKNHTGGVTGIEFHPNEFLLASGSSDRTVQFWDLETFQLVSSTSPGASAVRSISFHPDGSYLFCSSQDMLHAFGWEPIRCFDTFSVGWGKVADTVIASTQLIGASFNATNVSVYVADLSRMSTTGIAQEPQSQPSKTPSGGAEEVPSKPLTASGRKNFVRERPHTTSSKQRQPDVKSEPERQSPTQDEGVKDDDATDIKDPDSYAKIFSPKTRVDHSPERNAQPFPAPLDVPGAQEPEPFKHPPKPAAAAAVAPVSRAPAPSASDWQPAQANPAPNRVPAATKPVPAQEVAPSRKPDPISTIIPSDRNKPANLDMDAFLPPAHAQQAPRVNAPASRKQSDSERIEGLRKGHDSMCQVLSSRHRNLDVVRAIWTAGDAKTSVESVVNMKDQAILVDILNIMLLKKSLWNLDMCVVVLPRLKELLSSKYENYVHTSCACLKLILKNFTSLFNQNIKCPPSGIDITREERYNKCSKCYSYLIATRGYVEEKQHVSGKLGSSFRELHLLLDQLE
modifications: His tag; katanin p80 subunit
B3: p60/p80: co-expressed recombinant katanin p60/p80 heterodimer complex from baculovirus-infected insect cells (protein)
chain 1: HHHHHHMSVDEICENTKMGREYALLGNYETSLVYYQGVLQQIQKLLTSVHEPQRKHQWQTIRQELSQEYEHVKNITKTLNGFKSEPAAPEPAPNHRAAPFSHHQHAAKPAAAEPARDPDVWPPPTPVDHRPSPPYQRAARKDPPRRSEPSKPANRAPGNDRGGRGPSDRRGDARSGGGGRGGARGSDKDKNRGGKSDKDKKAPSGEEGDEKKFDPAGYDKDLVENLERDIVQRNPNVHWADIAGLTEAKRLLEEAVVLPLWMPDYFKGIRRPWKGVLMVGPPGTGKTMLAKAVATECGTTFFNVSSASLTSKYHGESEKLVRLLFEMARFYAPSTIFIDEIDSICSKRGTGSEHEASRRVKSELLIQMDGVSGPSAGEESSKMVMVLAATNFPWDIDEALRRRLEKRIYIPLPEIDGREQLLRINLKEVPLADDIDLKSIAEKMDGYSGADITNVCRDASMMAMRRRIQGLRPEEIRHIPKEELNQPSTPADFLLALQKVSKSVGKEDLVKYMAWMEEFGSV
chain 2: HHHHHHMATKRAWKLQELVAHSSNVNCLALGPMSGRVMVTGGEDKKVNLWAVGKQNCIISLSGHTSPVDSVKFNSSEELVVAGSQSGTMKIYDLEPAKIVRTLTGHRNSIRCMDFHPFGEFVASGSTDTNVKLWDVRRKGCIYTYKGHSDQVNMIKFSPDGKWLVTASEDTTIKLWDLTMGKLFQEFKNHTGGVTGIEFHPNEFLLASGSSDRTVQFWDLETFQLVSSTSPGASAVRSISFHPDGSYLFCSSQDMLHAFGWEPIRCFDTFSVGWGKVADTVIASTQLIGASFNATNVSVYVADLSRMSTTGIAQEPQSQPSKTPSGGAEEVPSKPLTASGRKNFVRERPHTTSSKQRQPDVKSEPERQSPTQDEGVKDDDATDIKDPDSYAKIFSPKTRVDHSPERNAQPFPAPLDVPGAQEPEPFKHPPKPAAAAAVAPVSRAPAPSASDWQPAQANPAPNRVPAATKPVPAQEVAPSRKPDPISTIIPSDRNKPANLDMDAFLPPAHAQQAPRVNAPASRKQSDSERIEGLRKGHDSMCQVLSSRHRNLDVVRAIWTAGDAKTSVESVVNMKDQAILVDILNIMLLKKSLWNLDMCVVVLPRLKELLSSKYENYVHTSCACLKLILKNFTSLFNQNIKCPPSGIDITREERYNKCSKCYSYLIATRGYVEEKQHVSGKLGSSFRELHLLLDQLE
B4: Katanin: heterodimer of 60 kDa and 80 kDa subunits, microtubule-severing ATPase from sea urchin eggs (protein)
chain 1: B3 chain 1
chain 2: B3 chain 2

Columns and labels:
[1] = tested on: DAPI-labeled microtubules; experiment: DAPI fluorescence microtubule disassembly (severing) assay; format: biochemical, bovine; details: 2 μM microtubules
Excerpt: To better compare the microtubule severing activities of p60 and p60/p80, we developed a quantitative microtubule disassembly assay based upon a previous finding that DAPI fluorescence intensity is higher when this dye is bound to polymerized versus free tubulin (Heusele et al. (1987) Eur. J Biochem. 165: 613-620). […] This slower rate of microtubule disassembly is consistent with the previously described 2-fold decrease in ATPase activity of p60 compared with p60/p80.
ATPase activity was measured by a modified malachite green method (Kodama et al. (1986) J. Biochem. 99: 1465-1472). […] Microtubule concentration was determined by measuring the absorbance at 275 nm in 6 M guanidine HCl by using a molecular mass of 110 kDa and an extinction coefficient of 1.03 ml mg^−1 cm^−1 (Hackney (1988) Proc. Natl. Acad Sci. USA, 85: 6314-6318). […]
DAPI severing assays were performed using conditions where the change in fluorescence intensity was linear with the amount of tubulin polymer added (Heusele et al. (1987) Eur. J Biochem. 165: 613-620). […] The reaction volume was 80 μL, and fluorescence intensity was measured by exciting at 370 nm. and measuring the emission at 450 mn using a model 8100 fluorimeter (SLM Instruments) in photon counting mode.

[2] = ATPase assay (modified malachite green method); format: biochemical; details: for ATPase activity (in words): baculovirus-expressed subunit alone; for microtubule concentration at peak stimulation of ATP turnover: non-hyperbolic, decreases at higher microtubule concentrations
Protocol: ATPase activity was measured by a modified malachite green method (Kodama et al. (1986) J. Biochem. 99: 1465-1472). ATPase reactions of 50-100 μl were carried out in a buffer previously used for measuring the ATPase activity of native katanin [20 mM K-HEPES pH 8.0, 25 mM potassium glutamate 2 mM MgCl2, 10% glycerol (v/v), 0.02% Triton X-100 (w/v), 1 mg/ml BSA] (McNally and Vale (1993) Cell, 75: 419-429), except that soybean trypsin inhibitor (SBTI) was replaced by BSA as a carrier protein because SBTI increased background phosphate contamination. An ATP regenerating system, consisting of 0.5-1.0 mM phosphoenol pyruvate and 2 units of pyruvate kinase, was included to minimize the inhibition by ADP observed previously for native katanin (McNally and Vale (1993) Cell, 75: 419-429). Microtubules were prepared from bovine brain tubulin (Hyman et al. (1990) Meth. Enzymol. 196: 303-319; and Williams and Lee (1982) Meth Enzymol. 85B: 376-385). After assembly, microtubules were sedimented (230,000×g; 10 min), resuspended in ATPase buffer lacking BSA, and the polymers were resuspended by repeated passage through a 27 gauge needle. Microtubule concentration was determined by measuring the absorbance at 275 nm in 6 M guanidine HCl by using a molecular mass of 110 kDa and an extinction coefficient of 1.03 ml mg^−1 cm^−1 (Hackney (1988) Proc. Natl. Acad Sci. USA, 85: 6314-6318). ATPase reactions were carried out at room temperature, and were initiated by addition of katanin.

[3] = tested on: Taxol-stabilized, rhodamine-labeled microtubules; experiment: Microscope-based microtubule severing assay; format: biochemical; details: for time until microtubules were completely disassembled: 0.1 μM protein, 1 mM ATP; for microtubule severing (in words): p60, p60/p80 0.1 μM, p80 0.5 μM (5-fold higher)
Protocol: FIGS. 5A, 5B, and 5C illustrate the activities of recombinant katanin subunits. […] Taxol-stabilized, rhodamine-labeled microtubules were adsorbed onto the surface of a microscope perfusion chamber, and then recombinant katanin subunits were introduced. The time elapsed after perfusing p60/p80 (0.1 μM), p60 (0.1 μM), or p80 (0.5 μM) is shown. The recombinant co-expressed p60/p80 and p60, but not p80, can sever and disassemble microtubules. Scale bar, 10 μm.
Microscope-based severing assays were performed using previously published procedures (McNally and Vale (1993) Cell, 75: 419-429), except that microtubules were immobilized by first perfusing flow cells with a bacterially expressed kinesin mutant that binds strongly to microtubules but is unable to hydrolyze ATP (K560, G234A mutant; R. Vale and E. Taylor, unpublished results). Assays were performed in 20 mM Hepes (pH 7.5), 2 mM MgCl2, 1 mM ATP with an oxygen scavenger system consisting of glucose oxidase (220 μg/ml), catalase (36 μg/ml), glucose (22.5 mM), and 2-mercaptoethanol (71.5 mM). Images were captured using a cooled, slow-scan CCD (Photometerics) and processed using Adobe Photoshop.

Row | Molecule | rate of microtubule disassembly compared with p60/p80 ([1]; 0.2 μM protein) | ATPase activity (in words) [2] | maximal basal and microtubule-stimulated ATPase rates relative to p60/p80 heterodimer ([2]; compared with p60/p80) | microtubule concentration at peak stimulation of ATP turnover [2] | time until microtubules were completely disassembled [3] | microtubule severing (in words) [3] | change in DAPI fluorescence (in words) [1] | ATP turnover rate ([2]; basal, without microtubules) | stimulation of ATPase activity by microtubules ([2]; maximal stimulation) | basal ATPase activity ([2]; basal) | maximal microtubule-stimulated ATPase rate ([2]; microtubule-stimulated)
1 | B1 | half as active as p60/p80 | displayed a microtubule-stimulated ATPase activity | 2 fold lower | ~2 μM tubulin | 5 min | severed microtubules | – | – | – | – | –
2 | B2 | – | no detectable ATPase activity | – | – | – | unable to sever microtubules | did not cause a change in fluorescence that was different from that shown for microtubules alone | – | – | – | –
3 | B3 | – | – | – | ~2 μM tubulin | 5 min | severed microtubules | – | 0.3 ATP/sec/heterodimer | ~10 fold | – | –
4 | B4 | – | – | – | – | – | – | – | – | – | 0.3 ATP/katanin/sec | 3 ATP/katanin/sec
